From publication PMC3645317

Target: gHΔTM-Fc/gL (Kaposi's sarcoma-associated herpesvirus (KSHV))

Sequence of solEphA2-Fc (P29317 25-534): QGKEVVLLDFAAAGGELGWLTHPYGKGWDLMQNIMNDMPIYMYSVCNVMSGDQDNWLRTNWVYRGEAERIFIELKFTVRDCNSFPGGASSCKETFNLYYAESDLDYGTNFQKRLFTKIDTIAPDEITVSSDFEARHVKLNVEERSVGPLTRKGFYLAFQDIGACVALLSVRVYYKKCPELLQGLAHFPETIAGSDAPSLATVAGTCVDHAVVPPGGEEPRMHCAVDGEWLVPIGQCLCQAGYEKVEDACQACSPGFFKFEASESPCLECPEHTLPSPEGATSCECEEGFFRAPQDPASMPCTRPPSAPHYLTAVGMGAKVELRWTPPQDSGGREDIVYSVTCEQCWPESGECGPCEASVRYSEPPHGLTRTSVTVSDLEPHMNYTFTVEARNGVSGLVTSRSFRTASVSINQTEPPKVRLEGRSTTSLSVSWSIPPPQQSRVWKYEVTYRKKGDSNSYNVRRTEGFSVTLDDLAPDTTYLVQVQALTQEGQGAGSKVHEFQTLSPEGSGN

In the case of “solEphA2-Fc (from UniProt P29317-1 25-534) (Fc fusion)”, the inhibition of KSHV infection of 293T cells by solEphA2-Fc at 2 µg/ml is reported as 80%.
